Measurements: article doi:10.1101/2025.04.18.649599
Each block holds one substance with its values, some of them ahead of it.

Tests used:
Assay in all cases: photon counting histogram
[1] = target: HaloTag-AtCRY2 (photolyase homology region of cryptochrome 2 from A. thaliana) (A. thaliana)
[2] = target: HaloTag-AtCRY2(W374A) (A. thaliana)
[3] = target: HaloTag-HsCRY2 (human CRY2 photolyase homology region) (human)
[4] = target: HaloTag-VfAuLOV (light-oxygen-voltage (LOV) domain of V. frigida Aurochrome1) (V. frigida)
[5] = target: HaloTag-bZip-VfAuLOV (V. frigida)

Substance: HaloTag-AtCRY2 (photolyase homology region of cryptochrome 2 from A. thaliana) (domain or fragment)
- relative brightness (relative to the monomeric standard) [1]: 2 to 4
- relative brightness at 750 nM (relative to the monomeric standard) [1]: 3
- stoichiometry N [1]: 4

Substance: HaloTag-AtCRY2(W374A) (domain or fragment)
- relative brightness (relative to the monomeric standard) [2]: 1.5

Substance: HaloTag-HsCRY2 (human CRY2 photolyase homology region) (domain or fragment)
- relative brightness at about 750 nM (relative to the monomeric standard) [3]: 1.6

- stoichiometry N [4]: 2
Substance: HaloTag-VfAuLOV (light-oxygen-voltage (LOV) domain of V. frigida Aurochrome1) (domain or fragment)

- stoichiometry N [5]: 2
Substance: HaloTag-bZip-VfAuLOV (domain or fragment)
